Results: PMC5148612, “Mechanism of cargo-directed Atg8 conjugation during selective autophagy” (eLife, 2016)

B3: GST-prApe1(1–41) + Atg19 (complex, S. cerevisiae)
chain 1: MEEQREILEQLKKTLQMLTVEPSKNNQIANEEKEKKENENS
chain 2: MNNSKTNQQMNTSMGYPLTVYDECNKFQLIVPTLDANIMLWCIGQLSLLNDSNGCKHLFWQPNDKSNVRILLNNYDYGHLFKYLQCQRKCSVYIGEGTLKKYNLTISTSFDNFLDLTPSEEKESLCREDAHEDPVSPKAGSEEEISPNSTSNVVVSRECLDNFMKQLLKLEESLNKLELEQKVTNKEPNHRISGTIDIPEDRSELVNFFTELKTVKQLEDVFQRYHDYERLSQECDSKTEIASDHSKKETKIEVEPPNERSLQITMNQRDNSLYFQLFNNTNSVLAGNCKLKFTDAGDKPTTQIIDMGPHEIGIKEYKEYRYFPYALDLEAGSTIEIENQYGEVIFLGKYGSSPMINLRPPSRLSAESLQASQEPFYSFQIDTLPELDDSSIISTSISLSYDGDDNEKALTWEEL
notes: prApe1, S. cerevisiae, propeptide; Atg19, S. cerevisiae; formed beforehand on the beads; Atg19 as m17; also called cargo mimetic beads; source: purified proteins from E. coli, assembled on glutathione Sepharose beads and washed; not shown: GST, N-terminal, kept

What was measured:
Conditions in all cases: both partners purified
Atg19 [1] = biological target: T1, Atg19 (S. cerevisiae, UniProt P35193 1-415); assay: microscopy-based protein-protein interaction assay on beads; beads with GST-prApe1(1–41) at 25 µM, washed, Atg19 15 µM, washed, Atg12~Atg5-Atg16-mCherry (wild type and mutants) 8.8 µM (Figure 5B, C)
T1 construct: Atg19, S. cerevisiae; printed without a tag; also called Atg19 wild type
T1 sequence (looked up): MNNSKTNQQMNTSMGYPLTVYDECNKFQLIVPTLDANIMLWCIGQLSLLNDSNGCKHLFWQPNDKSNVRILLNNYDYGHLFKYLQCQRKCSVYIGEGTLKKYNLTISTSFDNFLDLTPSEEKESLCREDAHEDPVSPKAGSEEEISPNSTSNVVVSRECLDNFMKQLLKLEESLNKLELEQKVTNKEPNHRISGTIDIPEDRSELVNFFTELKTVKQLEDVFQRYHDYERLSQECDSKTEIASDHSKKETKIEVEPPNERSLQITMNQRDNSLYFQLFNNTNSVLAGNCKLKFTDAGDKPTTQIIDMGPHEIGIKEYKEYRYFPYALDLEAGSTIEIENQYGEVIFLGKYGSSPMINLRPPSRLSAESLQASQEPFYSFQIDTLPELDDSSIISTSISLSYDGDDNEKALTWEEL

Atg19 [2] = biological target: T1, Atg19; assay: microscopy-based recruitment to cargo mimetic beads; beads with GST-prApe1(1–45) 25 µM, Atg19 15 µM, Atg12~Atg5-Atg16-mCherry 12.5 µM, washed after each step, with ATTO390-containing SUVs (Figure 6, Figure 6—figure supplement 2)
mCherry-Atg19 = biological target: T2, mCherry-Atg19 (S. cerevisiae, UniProt P35193 1-415); assay: microscopy-based protein-protein interaction assay on beads; beads with GST-prApe1(1–45) at 5 µM, washed, Atg19 (wild type, mutant or mCherry-Atg19) 5 µM, washed, Atg12~Atg5-Atg16-meGFP 5 µM (Figure 3—figure supplement 2, Figure 6—figure supplement 1)
T2 construct: Atg19, S. cerevisiae; also called 6xHis-mCherry-Atg19; source: E. coli Rosetta pLysS, purified via a hexahistidine tag; not shown: mCherry, N-terminal, kept
T2 sequence (looked up): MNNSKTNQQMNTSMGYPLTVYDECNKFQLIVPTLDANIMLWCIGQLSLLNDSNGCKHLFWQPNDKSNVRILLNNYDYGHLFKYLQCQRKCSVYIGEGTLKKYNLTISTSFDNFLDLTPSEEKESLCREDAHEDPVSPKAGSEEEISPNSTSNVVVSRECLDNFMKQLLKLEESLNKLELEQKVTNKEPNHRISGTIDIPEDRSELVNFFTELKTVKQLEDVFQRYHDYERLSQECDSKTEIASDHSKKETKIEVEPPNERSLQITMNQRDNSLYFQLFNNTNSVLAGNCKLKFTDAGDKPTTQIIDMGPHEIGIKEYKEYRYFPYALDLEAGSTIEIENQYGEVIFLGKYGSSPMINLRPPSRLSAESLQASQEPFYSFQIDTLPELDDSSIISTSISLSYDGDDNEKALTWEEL

[3] = biological target: T3, Atg12~Atg5-Atg16-mCherry complex (S. cerevisiae, UniProt P38316 1-186; Q12380 1-294; Q03818 1-150, conjugated to Atg5 (Atg12~Atg5 protein conjugate) | conjugated to Atg12); assay: microscopy-based competition assay on beads; beads with GST-prApe1 propeptide (10 µM) and Atg19 (20 µM), Atg12~Atg5-Atg16-mCherry 5 µM; then GFP-Atg8 5 µM (1x) and 50 µM (10x) (Figure 3G)
T3 construct: Atg12, S. cerevisiae; Atg5, S. cerevisiae; Atg16, S. cerevisiae; also called Cx; source: E. coli Rosetta pLysS; Atg12~Atg5 conjugate mixed 1:1 with purified Atg16-mCherry, purified by size exclusion chromatography; not shown: His6, N-terminal, cleaved; mCherry, C-terminal, kept; copies: + +
T3 sequence (looked up) 1: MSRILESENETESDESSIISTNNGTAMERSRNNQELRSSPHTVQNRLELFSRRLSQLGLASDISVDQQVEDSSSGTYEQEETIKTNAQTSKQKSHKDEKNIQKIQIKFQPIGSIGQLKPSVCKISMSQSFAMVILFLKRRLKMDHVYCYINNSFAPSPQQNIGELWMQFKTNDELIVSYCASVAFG
T3 sequence (looked up) 2: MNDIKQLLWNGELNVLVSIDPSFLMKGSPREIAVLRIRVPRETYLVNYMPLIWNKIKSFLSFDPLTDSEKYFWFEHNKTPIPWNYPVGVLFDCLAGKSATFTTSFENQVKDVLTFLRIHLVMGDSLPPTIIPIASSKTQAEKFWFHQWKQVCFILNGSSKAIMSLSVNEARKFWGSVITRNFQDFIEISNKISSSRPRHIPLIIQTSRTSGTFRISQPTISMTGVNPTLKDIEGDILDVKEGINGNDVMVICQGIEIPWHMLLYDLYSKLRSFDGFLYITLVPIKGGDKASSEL
T3 sequence (looked up) 3: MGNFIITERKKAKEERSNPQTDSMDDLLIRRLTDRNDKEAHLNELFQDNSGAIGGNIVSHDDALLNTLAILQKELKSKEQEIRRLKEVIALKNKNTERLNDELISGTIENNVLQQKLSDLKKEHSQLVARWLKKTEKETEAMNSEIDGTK

[4] = biological target: T3, Atg12~Atg5-Atg16-mCherry complex; assay: microscopy-based recruitment to cargo mimetic beads; beads with GST-prApe1(1–45) 25 µM, Atg19 15 µM, Atg12~Atg5-Atg16-mCherry 12.5 µM, washed after each step, with ATTO390-containing SUVs (Figure 6, Figure 6—figure supplement 2)
[5] = biological target: T4, Atg12~Atg5-Atg16-meGFP complex (S. cerevisiae, UniProt P38316 1-186; Q12380 1-294; Q03818 1-150, conjugated to Atg5 (Atg12~Atg5 protein conjugate) | conjugated to Atg12); assay: microscopy-based protein-protein interaction assay on beads; beads with GST-prApe1(1–45) at 5 µM, washed, Atg19 (wild type, mutant or mCherry-Atg19) 5 µM, washed, Atg12~Atg5-Atg16-meGFP 5 µM (Figure 3—figure supplement 2, Figure 6—figure supplement 1)
T4 construct: Atg12, S. cerevisiae; Atg5, S. cerevisiae; Atg16, S. cerevisiae; called -eGFP in one legend and -meGFP in the methods; also called Atg12~Atg5-Atg16-eGFP; source: E. coli Rosetta pLysS, purified; not shown: meGFP, C-terminal, kept; copies: + +
T4 sequence (looked up) 1: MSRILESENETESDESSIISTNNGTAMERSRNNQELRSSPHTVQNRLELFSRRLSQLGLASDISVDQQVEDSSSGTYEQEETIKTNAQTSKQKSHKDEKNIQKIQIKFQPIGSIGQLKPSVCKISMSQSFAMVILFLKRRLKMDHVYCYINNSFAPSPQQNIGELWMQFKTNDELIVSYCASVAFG
T4 sequence (looked up) 2: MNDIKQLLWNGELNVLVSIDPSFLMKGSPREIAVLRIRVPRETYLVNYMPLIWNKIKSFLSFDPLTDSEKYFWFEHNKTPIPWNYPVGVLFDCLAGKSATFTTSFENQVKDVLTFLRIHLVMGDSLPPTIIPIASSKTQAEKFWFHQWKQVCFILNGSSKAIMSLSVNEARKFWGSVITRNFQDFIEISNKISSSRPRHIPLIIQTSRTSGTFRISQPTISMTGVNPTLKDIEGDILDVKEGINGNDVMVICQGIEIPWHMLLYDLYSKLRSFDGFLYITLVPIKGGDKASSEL
T4 sequence (looked up) 3: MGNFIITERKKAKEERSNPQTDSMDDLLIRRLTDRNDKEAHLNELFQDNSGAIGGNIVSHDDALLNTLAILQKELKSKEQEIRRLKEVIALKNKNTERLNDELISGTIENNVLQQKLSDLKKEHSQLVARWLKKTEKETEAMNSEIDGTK

GST-Atg19 = biological target: T5, GST-Atg19 (S. cerevisiae, UniProt P35193 1-415); assay: pull-down; GST-fused bait 5 µM and GST-free prey 5 µM with glutathione Sepharose 4B, 1 hr at 4°C; washed with 25 mM HEPES pH 7.5, 150 mM NaCl, 1 mM DTT and 0.1% TritonX100; Western blot (Figures 1A, 1C, 2A, 2C)
T5 construct: Atg19, S. cerevisiae cargo receptor; also called full length GST-Atg19; Atg19 full length; source: E. coli Rosetta pLysS, purified; not shown: GST, N-terminal, kept
T5 sequence (looked up): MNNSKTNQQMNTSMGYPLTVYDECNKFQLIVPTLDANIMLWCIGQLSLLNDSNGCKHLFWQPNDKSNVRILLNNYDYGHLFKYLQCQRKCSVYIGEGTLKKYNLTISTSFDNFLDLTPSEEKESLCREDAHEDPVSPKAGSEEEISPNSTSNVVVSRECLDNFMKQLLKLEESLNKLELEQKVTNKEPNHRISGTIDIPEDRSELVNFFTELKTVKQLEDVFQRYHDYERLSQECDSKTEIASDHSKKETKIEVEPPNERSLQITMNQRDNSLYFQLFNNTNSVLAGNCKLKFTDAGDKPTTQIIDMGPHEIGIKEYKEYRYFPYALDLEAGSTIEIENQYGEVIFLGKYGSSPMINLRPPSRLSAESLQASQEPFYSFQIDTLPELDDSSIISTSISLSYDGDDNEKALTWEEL

GST-prApe1(1–41) + Atg19 = biological target: B3; assay: microscopy-based competition assay on beads; beads with GST-prApe1 propeptide (10 µM) and Atg19 (20 µM), Atg12~Atg5-Atg16-mCherry 5 µM; then GFP-Atg8 5 µM (1x) and 50 µM (10x) (Figure 3G)

B1: GST-prApe1(1–41) (domain or fragment, S. cerevisiae, UniProt P14904 1-41, looked up)
chain: MEEQREILEQLKKTLQMLTVEPSKNNQIANEEKEKKENENS
notes: prApe1, S. cerevisiae, propeptide; also called prApe1 propeptide; source: E. coli Rosetta pLysS, purified as a GST fusion protein; not shown: GST, N-terminal, kept
binding result (Atg19 [1]): binds

B2: GST-prApe1(1–45) (domain or fragment, S. cerevisiae, UniProt P14904 1-45, looked up)
chain: MEEQREILEQLKKTLQMLTVEPSKNNQIANEEKEKKENENSWCIL
notes: prApe1 (precursor aminopeptidase 1), S. cerevisiae, propeptide; also called prApe1 propeptide; cargo mimetic beads; source: E. coli Rosetta pLysS, purified; not shown: GST, N-terminal, kept
binding result (Atg19 [2]): binds | binding result (mCherry-Atg19): binds

B3
binding result [3]: binds

B4: GST-prApe1(1–45) + Atg19 (complex, S. cerevisiae)
chain 1: MEEQREILEQLKKTLQMLTVEPSKNNQIANEEKEKKENENSWCIL
chain 2: MNNSKTNQQMNTSMGYPLTVYDECNKFQLIVPTLDANIMLWCIGQLSLLNDSNGCKHLFWQPNDKSNVRILLNNYDYGHLFKYLQCQRKCSVYIGEGTLKKYNLTISTSFDNFLDLTPSEEKESLCREDAHEDPVSPKAGSEEEISPNSTSNVVVSRECLDNFMKQLLKLEESLNKLELEQKVTNKEPNHRISGTIDIPEDRSELVNFFTELKTVKQLEDVFQRYHDYERLSQECDSKTEIASDHSKKETKIEVEPPNERSLQITMNQRDNSLYFQLFNNTNSVLAGNCKLKFTDAGDKPTTQIIDMGPHEIGIKEYKEYRYFPYALDLEAGSTIEIENQYGEVIFLGKYGSSPMINLRPPSRLSAESLQASQEPFYSFQIDTLPELDDSSIISTSISLSYDGDDNEKALTWEEL
notes: prApe1, S. cerevisiae, propeptide; Atg19, S. cerevisiae; formed beforehand on the beads; Atg19 as m17; source: purified proteins from E. coli, assembled on glutathione Sepharose beads and washed; not shown: GST, N-terminal, kept
binding result [4]: binds | binding result [5]: binds

B5: Atg5-Atg16 (1–46) (complex, S. cerevisiae)
chain 1: MNDIKQLLWNGELNVLVSIDPSFLMKGSPREIAVLRIRVPRETYLVNYMPLIWNKIKSFLSFDPLTDSEKYFWFEHNKTPIPWNYPVGVLFDCLAGKSATFTTSFENQVKDVLTFLRIHLVMGDSLPPTIIPIASSKTQAEKFWFHQWKQVCFILNGSSKAIMSLSVNEARKFWGSVITRNFQDFIEISNKISSSRPRHIPLIIQTSRTSGTFRISQPTISMTGVNPTLKDIEGDILDVKEGINGNDVMVICQGIEIPWHMLLYDLYSKLRSFDGFLYITLVPIKGGDKASSEL
chain 2: MGNFIITERKKAKEERSNPQTDSMDDLLIRRLTDRNDKEAHLNELF
notes: Atg5, S. cerevisiae; Atg16, S. cerevisiae, first 46 amino acids; the His tag of Atg5 is followed by a TEV site; also called Atg5 stabilized with the N-terminal helix of Atg16; Atg5-Atg16 (1–46) wild type; source: E. coli, co-expressed and purified in complex
binding result (GST-Atg19): binds

B6: GFP-Atg8∆R117 (natural protein, S. cerevisiae, UniProt P38182 1-116, looked up)
chain: MKSTFKSEYPFEKRKAESERIADRFKNRIPVICEKAEKSDIPEIDKRKYLVPADLTVGQFVYVIRKRIMLPPEKAIFIFVNDTLPPTAALMSAIYQEHKDKDGFLYVTYSGENTFG
notes: Atg8, S. cerevisiae, without its last residue R117; also called meGFP-Atg8∆R117; 6xHis-meGFP-Atg8∆R117; source: E. coli Rosetta pLysS, purified; not shown: meGFP, N-terminal, kept
binding result (GST-prApe1(1–41) + Atg19): binds
